{"source": "patent US20240100133A1", "about": "“ENZYMATICALLY INACTIVE GRANZYME A AND USES THEREFORE” (Saint Louis University, priority 2022, published 2024)", "molecules": {"B1": {"name": "GzmA-WT: recombinant wild-type human Granzyme A, homodimeric serine protease, purified from HEK293T supernatants (protein)", "chain": "IIGGNEVTPHSRPYMVLLSLDRKTICAGALIAKDWVLTAAHCNLNKRSQVILGAHSITREEPTKQIMLVKKEFPYPCYDPATREGDLKLLQLMEKAKINKYVTILHLPKKGDDVKPGTMCQVAGWGRTHNSASWSDTLREVNITIIDRKVCNDRNHYNFNPVIGMNMVCAGSLRGGRDSCNGDSGSPLLCEGVFRGVTSFGLENKCGDPRGPGVYILLSKKHLNWIIMTIKGAV", "modifications": "left off: small tags and cut ends", "notes": "recombinant wild-type human Granzyme A, homodimeric serine protease, purified from HEK293T supernatants"}}, "key": {"[1]": {"system": "Connaught BCG within primary CD14+ human monocytes", "format": "cell-based"}, "[2]": {"system": "Mtb H37Rv within primary CD14+ human monocytes", "format": "cell-based, Mycobacterium tuberculosis"}, "[3]": {"system": "mycobacteria within iMac-WT mouse cells", "format": "cell-based", "details": "human GzmA on mouse iMac-WT cells"}, "[4]": {"system": "mycobacteria within iMac CD14KO cells", "assay": "MGIA in iMac CD14KO cells", "format": "cell-based, mouse"}, "mycobacteria BCG-GFP": {"system": "mycobacteria BCG-GFP", "format": "binding"}, "[5]": {"system": "LAMP1 (phagolysosome fusion)", "assay": "Confocal microscopy colocalization of BCG-GFP and LAMP1", "format": "cell-based, human", "details": "compared with untreated controls", "protocol": "(§1) Confocal microscopy and Stimulation Emission Depletion (STED) experiments. For confocal and STED microscopy experiments, cells were incubated on coverslips pre-treated with Cell-Tak (Corning #354240). At the time of fixation, cells were washed twice with 1×RT PBS, and then fixed in 4% paraformaldehyde for 15 min at 37° C. Slides were washed thrice for 5 min at RT with 1×PBS, and then blocked with 5% donkey serum (Cat. #017-000-121, Jackson ImmunoResearch, West Grove, PA) with 0.25% Tween-20 (Cat. #P9416, Sigma, St. Louis, MO) and True Stain Fc blocker (added only during blocking step) (Cat. #426101, Biolegend, San Diego, CA). Cells were then incubated overnight at 4° C. with primary antibody anti-GzmA (Cat. #MAB29051, R&D, Minneapolis, MN) at 12.5 μg/mL in blocking buffer, anti-PDIA1 (Cat. #MAB4236, R&D, Minneapolis, MN) at 12.5 μg/mL in blocking buffer, anti-LAMP1 at 12.5 ug/ml (Cat. #MAB4800, R&D, Minneapolis, MN), or anti-ATPSH (Cat. #ab110275, Abcam, Cambridge, UK) at 5 μg/mL in blocking buffer. To remove unbound antibody, cells were washed four times with 1×PBS at RT, and then incubated in the dark for 2 h with secondary antibody conjugated with Alexa Fluor 594 (Cat. #715-545-150, Jackson Immunoresearch, West Grove, PA) at 1:100 or Atto 647N (Cat. #ASR3248, Abcepta, San Diego, Ca) at 1:100. […]"}, "[6]": {"system": "Protein Disulfide Isomerase A1 (PDIA1)", "details": "human monocytes infected and treated with GzmA; cited from earlier work"}, "CD14": {"molecular_target": "T1, CD14 (Homo sapiens, UniProt P08571)", "T1 sequence (P08571 20-345)": "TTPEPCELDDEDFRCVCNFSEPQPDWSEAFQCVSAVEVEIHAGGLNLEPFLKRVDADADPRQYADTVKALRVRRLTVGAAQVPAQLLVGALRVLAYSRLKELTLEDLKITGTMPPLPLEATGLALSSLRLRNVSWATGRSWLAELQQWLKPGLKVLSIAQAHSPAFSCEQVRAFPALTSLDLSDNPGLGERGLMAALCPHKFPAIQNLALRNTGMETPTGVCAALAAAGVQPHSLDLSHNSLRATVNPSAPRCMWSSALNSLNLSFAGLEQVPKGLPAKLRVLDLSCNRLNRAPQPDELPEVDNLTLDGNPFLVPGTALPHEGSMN", "assay": "Immunoprecipitation with anti-GzmA, probed for CD14", "details": "human monocyte lysates, infected and uninfected cells"}, "TLR4": {"molecular_target": "TLR4 (Homo sapiens, UniProt O00206)", "sequence (O00206 24-839)": "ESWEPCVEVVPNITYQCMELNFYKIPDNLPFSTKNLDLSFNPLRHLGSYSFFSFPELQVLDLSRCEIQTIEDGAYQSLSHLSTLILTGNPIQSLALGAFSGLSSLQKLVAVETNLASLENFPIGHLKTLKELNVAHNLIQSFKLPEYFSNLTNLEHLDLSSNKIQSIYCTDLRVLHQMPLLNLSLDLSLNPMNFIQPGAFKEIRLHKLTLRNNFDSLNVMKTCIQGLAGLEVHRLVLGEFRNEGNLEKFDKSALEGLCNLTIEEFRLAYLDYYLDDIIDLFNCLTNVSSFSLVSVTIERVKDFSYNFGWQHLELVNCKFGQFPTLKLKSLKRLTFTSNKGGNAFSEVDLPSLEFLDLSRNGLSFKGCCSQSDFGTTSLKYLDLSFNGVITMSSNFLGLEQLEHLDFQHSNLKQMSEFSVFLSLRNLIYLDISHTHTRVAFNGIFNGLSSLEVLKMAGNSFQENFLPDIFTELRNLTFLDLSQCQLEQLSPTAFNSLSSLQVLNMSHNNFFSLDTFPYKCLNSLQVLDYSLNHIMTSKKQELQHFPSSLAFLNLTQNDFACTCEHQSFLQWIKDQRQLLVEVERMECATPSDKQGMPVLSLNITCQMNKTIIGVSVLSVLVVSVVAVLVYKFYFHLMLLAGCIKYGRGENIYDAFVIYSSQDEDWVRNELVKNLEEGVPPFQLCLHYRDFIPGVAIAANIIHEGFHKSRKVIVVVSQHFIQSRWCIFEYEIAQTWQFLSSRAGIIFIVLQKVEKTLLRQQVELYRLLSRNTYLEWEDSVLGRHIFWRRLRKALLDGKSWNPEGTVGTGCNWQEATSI", "assay": "Immunoprecipitation with anti-GzmA, probed for TLR4", "details": "human monocyte lysates, infected and uninfected cells"}, "[7]": {"system": "BCG-GFP in human monocytes", "assay": "BCG-GFP protection experiments and kinetics by flow cytometry", "method": "Following treatment with GzmA and infection with mycobacteria, monocytes were first blocked with True Stain Fc blocker (Cat. #426101, Biolegend, San Diego, CA), and then permeabilized using permeabilization solution (Cat. #554715, BD Biosciences, San Diego, CA). Next, cells were incubated with anti-GzmA antibody conjugated with PE (Cat. #558904, BD Biosciences, San Diego, CA). A flow cytometer was then used to analyze BCG-GFP and GzmA-PE positive cells. FlowJo software was used for analysis."}, "PDIA1 [8]": {"molecular_target": "T2, PDIA1 (Homo sapiens, UniProt P07237)", "assay": "STED microscopy colocalization of GzmA with PDIA1", "format": "cell-based", "set-up": "endogenous in cells; host or cells: primary human monocytes infected with mycobacteria", "details": "STED images, infected and treated human monocytes", "protocol": "as §1"}, "PDIA1 [9]": {"molecular_target": "T2, PDIA1", "assay": "Incubation of GzmA-WT with recombinant PDIA1 (silver stain, anti-GzmA WB)", "format": "biochemical", "set-up": "The cDNA of human PDIA1 (residues 18-479) was cloned into a pET-23 vector expression system; His-tag (N); made in house; host or cells: E. coli BL21(DE3)", "details": "fresh PDIA1; not present with heat-inactivated PDIA1", "protocol": "Expression and purification of human recombinant PDIA1. The cDNA of human PDIA1 (residues 18-479) was cloned into a pET-23 vector expression system. An N-terminal His-tag was engineered to facilitate purification. Sequence verified plasmids were transfected into BL21(DE3) cells. Cells were grown in LB medium until an OD600 of ˜0.6. Protein expression was induced with 0.5 mM IPTG. After overnight incubation at 37° C., cells were harvested by centrifugation. Soluble PDI protein was extracted by treating the cells with a nonionic detergent (B-PER, Thermo) followed by purification by affinity chromatography using a TALON resin as described before (Chinnaraj et al., 2021). Briefly, fractions eluted at 200 mM imidazole were pooled, dialyzed overnight in Tris 20 mM pH 7.4 145 mM NaCl to remove imidazole, and then loaded into size exclusion chromatography column 5200 10/300 (Cytiva) to isolate monomeric protein. Final protein concentrations were determined by measuring the absorbance at 280 nm, and using molar extinction coefficient of PDIA1 (i.e., 45755 M-lcm-1). Chemical identity was verified by mass spectrometry. Purify was >98%, as judged by SDS-PAGE."}}}
{"molecule": "B1", "values": [{"measurement": "GzmA inhibitory activity after CD14 neutralization (MGIA)", "setting": "[1]", "result": "lost their inhibitory activity"}, {"measurement": "GzmA inhibitory activity after TLR2 neutralization (MGIA)", "setting": "[1]", "result": "does not reverse"}, {"measurement": "GzmA inhibitory activity after TLR4 neutralization (MGIA)", "setting": "[1]", "result": "reversed GzmA-mediated mycobacterial growth inhibition"}, {"measurement": "intracellular replication of pre-opsonized mycobacteria (excess protein removed)", "setting": "[1]", "result": "reduced intracellular replication capacity"}, {"measurement": "mycobacterial growth inhibition, GzmA added prior to or during infection", "setting": "[1]", "result": "maximal inhibitory effects"}, {"measurement": "mycobacterial growth inhibition, GzmA added to already infected cells", "setting": "[1]", "result": "did not mediate inhibition"}, {"measurement": "inhibition of intracellular mycobacterial replication (MGIA)", "setting": "[1]; 72 h", "result": "inhibits the intracellular replication of mycobacteria"}, {"measurement": "inhibition of intracellular Mtb (MGIA)", "setting": "[2]; 200 nM GzmA, Mtb MOI 1, human monocytes", "result": "inhibited Mtb"}, {"measurement": "GzmA inhibitory activity after CD14 neutralization, Mtb", "setting": "[2]; Mtb-infected monocytes, anti-CD14", "result": "reversed GzmA-mediated mycobacterial growth inhibition"}, {"measurement": "GzmA inhibitory activity after TLR4 neutralization, Mtb", "setting": "[2]; Mtb-infected monocytes, anti-TLR4", "result": "reversed GzmA-mediated mycobacterial growth inhibition"}, {"measurement": "inhibition of mycobacterial growth in iMac-WT cells", "setting": "[3]", "result": "modestly inhibit mycobacterial growth"}, {"measurement": "inhibition of intracellular mycobacterial growth in CD14-deficient iMac cells", "setting": "[4]", "result": "incapable of inhibiting intracellular mycobacterial growth"}, {"measurement": "binding to mycobacteria", "setting": "mycobacteria BCG-GFP", "result": "bound mycobacteria"}, {"measurement": "colocalization between LAMP1 and BCG-GFP", "setting": "[5]", "result": "greater degree of colocalization"}, {"measurement": "PDIA1 upregulation compared to control", "setting": "[6]", "result": 90, "unit": "%"}, {"measurement": "binding to CD14 (immunoprecipitation)", "setting": "CD14", "result": "bound to CD14"}, {"measurement": "binding to TLR4 (immunoprecipitation)", "setting": "TLR4", "result": "bound to GzmA-WT"}, {"measurement": "uptake and persistence of bacteria in treated cells with detectable GzmA", "setting": "[7]; GzmA detected in treated monocytes", "result": "least uptake and persistence of bacteria"}, {"measurement": "mycobacterial growth in treated cells without sufficient internalization of protein (GzmA-)", "setting": "[7]; GzmA- cells, over 18 h", "result": "reduced mycobacterial growth over time"}, {"measurement": "reduction in mycobacterial growth AUC", "setting": "[7]; cells treated and staining positive for GzmA, over 18 h", "result": 78, "unit": "%"}, {"measurement": "degree of co-localization between GzmA and PDIA1", "setting": "PDIA1 [8]", "result": 75, "unit": "%"}, {"measurement": "conversion of homodimer by PDIA1", "setting": "PDIA1 [9]", "result": "monomeric band at 27 KDa"}]}
